This is an account of results in patent US20130045267A1, “METHODS OF USING AGENTS THAT MODULATE CLAUDIN EXPRESSION” (priority 2010, published 2013).

Values joined by “and” are separate entries in the source; they are usually repeats but may differ in a detail not shown here. Equal values may be shown once.

One data set has as its system nectin-1 (PVRL1). Put plainly: qPCR of nectin-1 (PVRL1) after CLDN1 siRNA in PHK. In kind it is cell-based, human. Here is the method: PHK were plated on glass coverslips at 2-3×10^5 cells/well in a E-well plate or at 2-3×10^4 cells/filter in Transwell inserts (Costar; PET membrane, 0.4 μm pore size, 6.5 mm insert) in Keratinocyte-SFM without antibiotics. The next day after plating, cells were transfected with claudin-1 specific or control (scrambled) siRNAs (Santa Cruz) using Lipofectamine™ 2000 transfection Reagent (Invitrogen).
Reverse transcription was performed from total RNA using iScript™ cDNA Synthesis kit (Bio-Rad) according to the manufacturer's protocol. qPCR was performed using the iQ™ SYBER Green Supermix assay system from Bio-Rad Laboratories. All PCR amplifications were carried out in triplicate on an iQ5 Multicolor real-time PCR detection system (Bio-Rad). Primers were designed and synthesized by Integrated DNA Technologies. […]
Relative gene expression was calculated by using the […], in which Ct indicates cycle threshold, the fractional cycle number where the fluorescent signal reaches detection threshold. Livak and Schmittgen, “Analysis of Relative Gene Expression Data Using Real-Time Quantitative PCR and the 2(−Delta Delta C(T)) Method,” Methods 25:402-8 (2001), which is hereby incorporated by reference in its entirety. The normalized Ct value of each sample was calculated using GAPDH as an endogenous control gene.
In general terms: Real-time PCR tracks product formation cycle by cycle.

The subject of data set [1] is occludin, ZO-1, nectin-1, E-cadherin or filaggrin. The data set is described as follows: qPCR of other barrier proteins after claudin-1 siRNA in PHK. In kind it is cell-based, human. The following applies: siRNA 100 nM, n=5/group. Here is the method: QPCR was performed using the iScript™ cDNA Synthesis kit and iQ™ SYBER Green Supermix assay system (Bio-Rad Laboratories). All PCR amplifications were carried out in triplicate on an iQ5 Multicolor real-time PCR detection system (Bio-Rad). Primers were designed and synthesized by Integrated DNA Technologies (Table 1). Relative gene expression was calculated by using the 2^−ΔΔCt method. Livak and Schmittgen, “Analysis of Relative Gene Expression Data Using Real-Time Quantitative PCR and the 2(−Delta Delta C(T)) Method,” Methods 25:402-8 (2001), which is hereby incoporated by reference in its entirety. The normalized Ct value of each sample was calculated using GAPDH as an endogenous control gene.
PHK were plated on glass coverslips at 2-3×10^5 cells/well in a 6-well plate or at 2-3×10^4 cells/filter in Transwell insert (Costar; PET membrane, 0.4 μm pore size, 6.5 mm insert) in Keratinocyte-SFM without antibiotics. The next day after plating, cells were transfected with claudin-1 specific or control (scrambled) siRNAs (Santa Cruz) using Lipofectamine™ 2000 transfection Reagent (Invitrogen). TEER and permeability experiments were conducted 48 hours after PHK were switched to differentiation media.

The test system of the next data set is HSV-1 strain F. The data set is described as follows: HSV-1 fluorescent-focus assay in PHK. The following applies: siRNA 100 nM, MOI 0.1, 24 h, n=6. In kind it is cell-based, Herpes Simplex Virus (HSV)-1. On the procedure:
Infection studies were performed using the highly virulent HSV-1 strain F (provided by Dr. D.C. Johnson). Twenty-four to 48 h post-transfection with 100 nM claudin-1 or control siRNA, the cells were differentiated in DMEM with 10% heat-inactivated FBS for 24 h. Cells were washed twice with HBSS and infected with HSV-1 strain F at a multiplicity of infection (MOI) of 0.1 in DMEM containing 1% heat-inactivated FBS at 37° C., with rocking every 15 min. After 2 h, the viral inoculum was removed, and the cells were washed 2× with HBSS and incubated in DMEM containing 5% HI-FBS and 0.4% human-γ-globulin (Sigma; final concentration 0.5 mg/ml) for 24 hr to neutralize any extracellular virus.
HSV-infected PHK were washed 2× with PBS and fixed in 4% formaldehyde/PBS for 20 min at room temperature. A polyclonal rabbit anti-HSV-1 (Dako) antibody diluted 1:500 in PBS/1% BSA was placed on the PHK for 1 h at 37° C. followed by Alexa Fluor 488 donkey-anti-rabbit IgG H+L (1:1000, Molecular Probes) and 4′,6-diamidino-2-phenyl-indole, dihydrochloride (DAPI) (1:10,000, Molecular Probes). Coverslips were mounted onto slides with SlowFade (Molecular Probes). […] Images were stored in Portable Network Graphics (PNG) format and analyzed computationally to objectively quantify differences in focal forming units (FFU). […] Cell density was calculated by counting the number of DAPI labeled nuclei, assigned to the blue channel. Images were analyzed using MATLAB to enumerate FFU, and total cell number. […]
The MOI was chosen based on findings from viral titration (0.01 to 10 MOI) studies on differentiated and undifferentiated PHK, respectively, used as negative and positive controls. […] For each sample, six random fields were captured at identical acquisition settings and analyzed computationally to objectively quantify differences in focal forming units (FFU). […] An average of 4.8±0.7 FFU/field were counted in CLDN1 knockdown PHK, while only 2.5±0.5 FFU/field were detected in the control cells (P=0.05; n=6; FIG. 15C). Adapted Fluorospot software was used to semi-quantify differences in dimensions of each FFU. […]

B1: CLDN1 siRNA: claudin-1 specific siRNA (Santa Cruz), a pool of 3 separate strands, SEQ ID NO: 10-15 (nucleic acid)
chain 1: UACAUAGGCAUAGUUCAUGNN
chain 2: CAUGAACUAUGCCUAUGUANN
chain 3: AACGUAUGCAGUUAAUUCCNN
chain 4: GGAAUUAACUGCAUACGUUNN
chain 5: UGAAGAUCUAUGUAUGUGGNN
chain 6: CCACAUACAUAGAUCUUCANN
modifications: chemistry not given here
With B1, in the data set on nectin-1 (PVRL1) (n=5), the “nectin-1 mRNA expression, effect of CLDN1 silencing” value was “not affected”. Besides, the “nectin-1 (PVRL1) mRNA relative expression” value in the data set on nectin-1 (PVRL1) (siRNA 100 nM, n=5/group) was determined as 0.99±0.16. Also, the “mRNA expression of occludin, ZO-1, nectin-1, E-cadherin or filaggrin” value in data set [1] (listed as Cldn1 siRNA) is recorded as “no effect”. The “mRNA expression of occludin, ZO-1, nectin-1, E-cadherin or filaggrin” value in data set [1] (listed as claudin-1 siRNA) is “no changes”. In addition, in the data set on HSV-1 strain F, the FFU area stood at 15649±4367 pixels; the “HSV-1 focal forming units” value turned out to be 4.8±0.7 FFU/field; the “diameter of the major axis of FFU” value is 207±22 μm and 207±21 μm.
